These results are taken from patent publication US20120134993A1 (ZymoGenetics, published 2012).

This test has as its target T1, human FGFR4-Fc (R&D Systems) (human, UniProt P22455 22-369).
T1 construct: Bought; also called FGFR4 (R&D systems); R&D FGFR4; not shown: Fc of the commercial fusion; not described
Kind of test: ELISA: FGF-8b coated at 100 nM, FGFR-Fc 100 to 0.10 nM in 1:2 steps with 10 ug/ml heparin, anti-human Fc-HRP, OD 490 nm. The protocol:
To determine the binding capability of FGFR-Fc to their respective ligands, an ELISA was run. Recombinant human FGF-8b or FGF-17 (R&D Systems) was plated at 100 nM on a Nunc Maxisorp 96-well plate for 1 h at room temperature with shaking. The plates were blocked with BLOTTO (Thermo Fisher Scientific, Rockford, Ill.) for 1 h at room temperature, then washed 5 times with ELISA C buffer (137 mM NaCl, 2.7 mM KCl, 7.2 mM Na₂HPO₄, 1.5 mM KH₂PO₄, 0.05% (v/w) polysorbate 20, pH 7.2). FGFR-Fcs were diluted to 100 nM with PBS/0.1×BLOTTO/10 ug/ml porcine heparin (Sigma, St. Louis, Mo.) and then 1:2 serial dilutions were made, ending at 0.10 nM. 100 μL of FGFR-Fcs were plated and incubated at 4° C. overnight. The following day, the plates were washed 5 times with ELISA C and then incubated with 2.5 μg/mL horseradish peroxidase-conjugated anti-human Fc antibody (Jackson ImmunoResearch Laboratories, West Grove, Pa.) for 1 h at room temperature with shaking. After 5 washes with ELISA C, 100 μL of OPD in citrate buffer (5 mg of o-phenylenediamine in 63 mM sodium citrate, 37 mM citric acid, pH 5.0, 0.03% H₂O₂) was added for detection. After 2-5 minutes, the reaction was stopped with 1 N H₂SO₄. The plates were read at 490 nm using SoftMaxPro software.
On the technique in general: In an ELISA, binding on a coated surface is turned into a signal by an enzyme label.

B1: recombinant human FGF-8b (ligand, UniProt P55075-3 23-215, looked up)
chain: QVTVQSSPNFTQHVREQSLVTDQLSRRLIRTYQLYSRTSGKHVQVLANKRINAMAEDGDPFAKLIVETDTFGSRVRVRGAETGLYICMNKKGKLIAKSNGKGKDCVFTEIVLENNYTALQNAKYEGWYMAFTRKGRPRKGSKTRQHQREVHFMKRLPRGHHTTEQSLRFEFLNYPPFTRSLRGSQRTWAPEPR
On to B1, for which the binding result is “binds”.
